The Kd is the equilibrium constant for the complex coming apart. By IC50 is commonly meant the concentration at which inhibition is half-maximal.

The values that follow come from the Immune Epitope Database (IEDB).

Bounds are passed on as bounds.

The target in one assay is HLA-B*15:01. In words: IEDB peptide-MHC binding, purified MHC/competitive/radioactivity; filed as Kd, often an IC50 or EC50 that approximates it; ≥ and ≤ were set here for values at or beyond the usual limits of such assays.
A further assay addresses HLA-A*68:02. Described as above.
Another assay addresses HLA-A*32:01. The assay is described as above. Particulars: source organism: Vaccinia virus WR.
In a further assay the target is HLA-B*51:01. The assay is described as above.
The next assay deals with HLA-B*53:01. The assay is described as above.
For the next assay, the target named is HLA-B*07:02. The description is as above.
A further assay deals with HLA-B*54:01. The assay is described as above.
In the next assay the target is HLA-B*35:01. The assay is described as above.
Another assay concerns the target HLA-A*03:01. The experiment in a line: IEDB peptide-MHC binding, purified MHC/competitive/fluorescence; filed as Kd, often an IC50 or EC50 that approximates it; ≥ and ≤ were set here for values at or beyond the usual limits of such assays.
A further assay addresses HLA-A*11:01. The experiment in a line: IEDB peptide-MHC binding, purified MHC/competitive/fluorescence; ≥ and ≤ were set here for values at or beyond the usual limits of such assays. Particulars: source organism: Vaccinia virus.
A further assay addresses HLA-A*02:06. The experiment in a line: IEDB peptide-MHC binding, purified MHC/competitive/radioactivity; filed as Kd, often an IC50 or EC50 that approximates it; ≥ and ≤ were set here for values at or beyond the usual limits of such assays. To be noted: source organism: Dengue virus 4 Philippines/H241/1956.
For a further assay, the target named is HLA-A*02:12. In words: IEDB peptide-MHC binding, purified MHC/direct/fluorescence; filed as Kd, often an IC50 or EC50 that approximates it; ≥ and ≤ were set here for values at or beyond the usual limits of such assays. Particulars: source organism: Mycobacterium tuberculosis str. Haarlem.
In a further assay the target is HLA-A*69:01. The description is as above. Particulars: source organism: Mycobacterium tuberculosis.
A further assay concerns the target HLA-A*24:03. Described as above. Particulars: source organism: Amur virus.
Another assay concerns the target HLA-A*02:01. In words: IEDB peptide-MHC binding, purified MHC/competitive/radioactivity; filed as Kd, often an IC50 or EC50 that approximates it; ≥ and ≤ were set here for values at or beyond the usual limits of such assays.
Where [1] appears, read: source organism: Dengue virus 1 Brazil/97-11/1997.
Setting [2] is: source organism: Vaccinia virus WR.
Where [3] appears, read: source organism: Dengue virus 4 Dominica/814669/1981.
The mark [4] stands for this setting: source organism: Triticum aestivum.
[5] abbreviates: source organism: Mammarenavirus whitewaterense.
The mark [6] stands for this setting: source organism: SARS coronavirus Tor2.
The mark [7] stands for this setting: source organism: Mammarenavirus lassaense.
Setting [8] is: source organism: Mammarenavirus juninense.

For the sequence QMANGIALGL, the Kd in the assay with HLA-B*15:01 (source organism: Dengue virus 3 Martinique/1243/1999) worked out at 191 nM.
In the case of TSHNILVEV, the Kd with HLA-A*68:02 (setting [1]) is 7.42 nM.
With HINKLFSVF, the Kd was determined as 907 nM with HLA-A*32:01 and 0.915 nM with HLA-B*15:01 (setting [2]).
Regarding GPMPYMISTY, the Kd in the assay with HLA-B*51:01 (setting [2]) is at least 64700 nM; in the assay with HLA-B*53:01 (setting [2]), 272 nM; with HLA-B*07:02 (setting [2]), 886 nM; with HLA-B*54:01 (setting [2]), 1500 nM; with HLA-B*35:01 (setting [2]), 89.3 nM.
The sequence LLLKERGLK yielded a Kd in the assay with HLA-A*03:01 (source organism: Vibrio vulnificus CMCP6) of 29.6 nM.
In turn, SGTEKEFLR gave a half-inhibitory concentration (IC50) with HLA-A*11:01 of at least 412000 nM.
As to CSAVPSHWV, the dissociation constant Kd with HLA-A*68:02 (source organism: Dengue virus 2 Jamaica/1409/1983) came out at 9.21 nM.
IILAHFLYK gave a Kd with HLA-A*03:01 (source organism: Bacillus anthracis str. A0488) of 12 nM.
In the case of LMYADDTAGW, the Kd turned out to be 46.1 nM with HLA-B*53:01 (setting [3]) and 41.6 nM with HLA-B*15:01 (setting [3]).
For the sequence QIAMTDTTPF, in the assay with HLA-B*15:01 (setting [1]), the equilibrium dissociation constant (Kd) came to 7.04 nM.
Turning to NTPEGIIPAL, in the assay with HLA-A*68:02 (setting [1]), the Kd was 20.5 nM.
As to IQRTVFFVL, the Kd was 5.09 nM in the assay with HLA-B*15:01 (source organism: Dengue virus 4 Philippines/H241/1956) and 12.3 nM in the assay with HLA-A*02:06.
As for GLLDVTDNV, the figures for the Kd with HLA-A*02:12 and with HLA-A*69:01 were 3 nM and 486 nM, respectively.
For NVFKAMETF, the Kd in the assay with HLA-B*15:01 (setting [2]) was 22.8 nM.
Take QPFPQPQLPY: the dissociation constant (Kd) was 1370 nM with HLA-B*51:01 (setting [4]); 256 nM with HLA-B*53:01 (setting [4]); 552 nM with HLA-B*07:02 (setting [4]); at least 41000 nM with HLA-B*54:01 (setting [4]); 9.37 nM in the assay with HLA-B*35:01 (setting [4]).
Turning to APTGGVVKI, the dissociation constant Kd is at least 57800 nM with HLA-B*51:01 (setting [5]); 10500 nM with HLA-B*53:01 (setting [5]); 1780 nM with HLA-B*07:02 (setting [5]); at least 78100 nM with HLA-B*54:01 (setting [5]); 9320 nM with HLA-B*35:01 (setting [5]).
Turning to MHTDLELDF, the Kd in the assay with HLA-A*24:03 turned out to be 4850 nM.
For CPASKKESVI, the Kd with HLA-B*51:01 (setting [2]) was 9310 nM; with HLA-B*53:01 (setting [2]) it was 92.3 nM; in the assay with HLA-B*07:02 (setting [2]) it was 7.12 nM; with HLA-B*54:01 (setting [2]) it was 2410 nM; with HLA-B*35:01 (setting [2]), at least 69900 nM.
For AMIELCGAF, the Kd in the assay with HLA-B*15:01 (setting [2]) amounted to 0.336 nM.
With VPYNMRVIHF, the Kd with HLA-B*51:01 (setting [6]) turned out to be 5590 nM; with HLA-B*53:01 (setting [6]) it was 688 nM; with HLA-B*07:02 (setting [6]), 149 nM; in the assay with HLA-B*54:01 (setting [6]) it was 505 nM; in the assay with HLA-B*35:01 (setting [6]) it was 1440 nM.
Regarding FPYIMGSVEL, the Kd with HLA-B*51:01 (setting [7]) was 368 nM; with HLA-B*53:01 (setting [7]), 80.2 nM; with HLA-B*07:02 (setting [7]), 241 nM; in the assay with HLA-B*54:01 (setting [7]), 155 nM; with HLA-B*35:01 (setting [7]) it was 12.4 nM.
With LVRHYFRYI, in the assay with HLA-B*15:01 (setting [2]), the Kd worked out at 158 nM.
Regarding LPTLFGRGV, the Kd is 6.04 nM with HLA-B*51:01 (setting [2]); 956 nM with HLA-B*53:01 (setting [2]); 8.32 nM in the assay with HLA-B*07:02 (setting [2]); 1.99 nM with HLA-B*54:01 (setting [2]); 1280 nM with HLA-B*35:01 (setting [2]).
LSASVFYRG: the Kd in the assay with HLA-B*15:01 (setting [2]) turned out to be 295 nM.
With FIMIVGGLV, the dissociation constant (Kd) in the assay with HLA-A*02:01 (source organism: HIV-1 M:B_MN) stood at 382 nM.
Regarding VLQQSTYQL, the Kd with HLA-A*02:01 (setting [4]) is 58 nM.
As to MAVELFQTI, the Kd in the assay with HLA-B*51:01 (setting [8]) came to 8.54 nM; with HLA-B*53:01 (setting [8]), 6.99 nM; with HLA-B*07:02 (setting [8]) it was 7280 nM; with HLA-B*54:01 (setting [8]), 188 nM; with HLA-B*35:01 (setting [8]), 61 nM.
Regarding QPFPQPQL, the Kd with HLA-B*51:01 (setting [4]) is 2160 nM; with HLA-B*53:01 (setting [4]), at least 87700 nM; with HLA-B*07:02 (setting [4]), 583 nM; in the assay with HLA-B*54:01 (setting [4]) it was at least 20300 nM; with HLA-B*35:01 (setting [4]) it was at least 87800 nM.
